Assay results reported in PMC6378725 (BMC Biotechnology, 2019).
Residue numbers refer to the chain shown, from its start. Names and notes keep the numbering of the source.

What was measured:
[1] = molecular target: T1, HLA-A*02:01 on BLCL HEN cells (Homo sapiens, HLA-A*02:01, strain); assay: flow cytometry on cells; 150,000 BLCL cells with various concentrations of purified mAbs in PBS 0.5% BSA, 30 min at room temperature; PE goat anti-human IgG; settings: one partner purified
T1 construct: HLA-A*02:01 naturally expressed on BLCL HEN; beta-2-microglobulin of the cells; also called BLCL HEN expressing HLA-A2; source: endogenous, on BLCL HEN cells (HLA-A*02:01/ HLA-A*0101); copies: + +

[2] = molecular target: T2, HLA-A2 on stably transfected B721.221 cells (Homo sapiens, HLA-A*02:01, strain); assay: as above; settings: one partner purified
T2 construct: beta-2-microglobulin of the cells; also called 721.221(A2); B721.221 A2; source: B721.221 cells, stably transfected, on the cell surface; copies: + +

[3] = molecular target: T3, HLA-A*02:01 on a single antigen bead (Homo sapiens, HLA-A*02:01, strain); assay: single antigen flow bead assay (Luminex); LabScreen single-antigen LS1A04 beads with 97 MHC class I alleles, Luminex 100 analyser; positivity threshold MFI 1000; settings: both partners purified
T3 construct: beta-2-microglobulin; source: bought: One Lambda (LabScreen single-antigen LS1A04); copies: + +

Measured: binding result

B1: C4.4 (antibody, V domains shown)
VH: EVQLVESGAEVKKPGESLKISCKASGYRFTNYWIGWVRQMPGKGLEWMGIIYPYHSDTQYTPSFQGQVTISADESTTTAYLHLSSLKASDTAIYYCVRLRGDFVPVVFAPYFDSWGQGTLVT
VL: QSALTQPRSVSGSPGQSVTISCTGSRSDAHTFNYVSWYQQHPGKAPKLMICDVNQRPSGVPDRFSGSKSGDAASLTISGLQAEDEADYYCFSYDANYTLGVFGTGTKVTVL
notes: numbers count on: the heavy chain from the first amino acid of its leader peptide; human heavy chain constant domains of the IgG-AbVec expression vector; human lambda light chain constant domain of the Iglambda-AbVec expression vector; Only the heavy chain was mutated; also called cluster D74H//S80 T//W102 L//M112I//G121D//R124P
binds: all assays above

B2: C4.18 (antibody, V domains shown)
VH: B1 VH with T61S
VL: B1 VL
notes: numbers count on: the heavy chain from the first amino acid of its leader peptide; human heavy chain constant domains of the IgG-AbVec expression vector; human lambda light chain constant domain of the Iglambda-AbVec expression vector; Only the heavy chain was mutated; also called cluster D74H//W102 L//M112I//G121D//R124P
binds: all assays above
